This passage reports Kd results from publication PMC4609965 (2015).

The target in this assay is alpha-synuclein (Homo sapiens, UniProt P37840). Description: NMR PRE titration.

B1: beta-synuclein 115-134 (peptide)
chain: EGESYEDPPQEEYQEYEPEA
In the case of B1, the Kd was ~100 µM.

B2: alpha-synuclein 125-140 (peptide)
chain: YEMPSEEGYQDYEPEA
B2: the Kd is ~500 µM.
